{"source": "patent JP2000515494A", "about": "(dated 2000)", "biological_target": "T1, 4A6/IL-5複合体 (hIL-5 captured on immobilised mAb 4A6) (human, UniProt P05113 20-134)", "T1 construct": "also called 4A6/IL-5 complex", "T1 sequence (P05113 20-134)": "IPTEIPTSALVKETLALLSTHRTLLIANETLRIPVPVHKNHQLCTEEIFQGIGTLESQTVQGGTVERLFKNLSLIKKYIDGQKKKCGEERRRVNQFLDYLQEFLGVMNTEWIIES", "test": "BIAcore: mAb 4A6 immobilised, hIL-5 captured, IL-5Rα injected at 15, 30, 60, 120 nM"}
{"binder": "可溶性IL-5レセプターα鎖 (soluble IL-5 receptor alpha chain) (receptor, UniProt Q01344 21-335, looked up, also called IL-5Pα [sic]) DLLPDEKISLLPPVNFTIKVTGLAQVLLQWKPNPDQEQRNVNLEYQVKINAPKEDDYETRITESKCVTILHKGFSASVRTILQNDHSLLASSWASAELHAPPGSPGTSIVNLTCTTNTTEDNYSRLRSYQVSLHCTWLVGTDAPEDTQYFLYYRYGSWTEECQEYSKDTLGRNIACWFPRTFILSKGRDWLAVLVNGSSKHSAIRPFDQLFALHAIDQINPPLNVTAEIEGTRLSIQWEKPVSAFPIHCFDYEVKIHNTRNGYLQIEKLMTNAFISIIDDLSKYDVQVRAAVSSMCREAGLWSEWSQPIYVGNDE", "values": [{"measurement": "koff", "result": 0.0023, "unit": "s⁻¹"}, {"measurement": "kon", "result": 630000, "unit": "M⁻¹ s⁻¹"}]}
